The values below come from patent US20210009697A1 (Five Prime, published 2021).

The target in test [1] is T1, human colony stimulating factor 1 receptor (CSF1R) (human, UniProt P07333 20-506, limits assumed).
T1 construct: In the monocyte assays the receptor is the endogenous one on primary human monocytes; also called hCSF1R
In words: not described.

The next test deals with T2, mouse CSF1R (mouse, UniProt P09581 20-511, limits assumed).
T2 construct: In the mNFS60 proliferation assay the receptor is that of the cell line
T2 sequence (looked up): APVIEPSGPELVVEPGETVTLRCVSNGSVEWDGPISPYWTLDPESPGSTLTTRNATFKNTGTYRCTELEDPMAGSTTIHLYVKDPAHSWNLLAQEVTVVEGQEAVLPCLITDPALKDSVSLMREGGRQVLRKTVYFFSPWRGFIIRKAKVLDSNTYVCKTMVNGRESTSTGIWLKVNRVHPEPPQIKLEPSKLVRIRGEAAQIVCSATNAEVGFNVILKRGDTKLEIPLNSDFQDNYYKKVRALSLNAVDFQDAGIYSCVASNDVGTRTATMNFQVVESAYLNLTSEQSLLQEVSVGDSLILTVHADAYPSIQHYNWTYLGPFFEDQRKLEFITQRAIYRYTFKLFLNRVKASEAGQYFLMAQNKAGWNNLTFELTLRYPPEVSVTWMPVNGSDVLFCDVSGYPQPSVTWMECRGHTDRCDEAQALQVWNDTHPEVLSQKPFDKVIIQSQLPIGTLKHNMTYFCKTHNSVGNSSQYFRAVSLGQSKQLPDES
Description: not described.

For a further test, the target named is T3, ICOS (UniProt Q9Y6W8 21-141, limits assumed).
T3 construct: also called inducible co-stimulator
T3 sequence (looked up): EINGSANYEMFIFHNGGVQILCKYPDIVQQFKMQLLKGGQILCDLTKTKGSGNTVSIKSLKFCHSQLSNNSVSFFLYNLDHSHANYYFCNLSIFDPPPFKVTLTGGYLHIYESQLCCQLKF
In words: in vitro, method not described.

The next test deals with T4, CTLA-4 (human, UniProt P16410 37-162, limits assumed).
T4 construct: also called cytotoxic T lymphocyte antigen-4
T4 sequence (looked up): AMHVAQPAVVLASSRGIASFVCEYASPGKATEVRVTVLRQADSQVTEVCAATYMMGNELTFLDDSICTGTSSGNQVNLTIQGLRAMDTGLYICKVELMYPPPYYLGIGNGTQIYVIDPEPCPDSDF
Description: in vitro, method not described.

Another test has as its target T5, BTLA (UniProt Q7Z6A9 31-151, limits assumed).
T5 construct: also called B- and T-lymphocyte attenuator
T5 sequence (looked up): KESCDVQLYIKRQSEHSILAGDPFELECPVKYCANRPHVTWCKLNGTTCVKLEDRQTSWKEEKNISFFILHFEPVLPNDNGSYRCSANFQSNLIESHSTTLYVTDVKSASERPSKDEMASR
In words: in vitro, method not described.

T1 sequence (P07333 20-506 limits assumed): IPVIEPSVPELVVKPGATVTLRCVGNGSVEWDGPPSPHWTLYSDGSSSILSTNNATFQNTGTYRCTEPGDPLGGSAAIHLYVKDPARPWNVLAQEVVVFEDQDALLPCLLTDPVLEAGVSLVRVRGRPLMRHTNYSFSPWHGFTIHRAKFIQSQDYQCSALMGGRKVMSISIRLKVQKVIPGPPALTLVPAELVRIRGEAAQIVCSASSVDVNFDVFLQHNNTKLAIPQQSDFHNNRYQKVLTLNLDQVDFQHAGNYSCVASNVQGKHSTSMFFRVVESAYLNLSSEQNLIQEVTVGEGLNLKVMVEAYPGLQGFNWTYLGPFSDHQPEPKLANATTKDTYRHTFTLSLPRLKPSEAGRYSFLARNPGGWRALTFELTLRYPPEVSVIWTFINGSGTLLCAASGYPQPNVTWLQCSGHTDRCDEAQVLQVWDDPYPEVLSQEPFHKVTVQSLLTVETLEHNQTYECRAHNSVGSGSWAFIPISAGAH

B1: Cabiralizumab (antibody, human IgG4 S228P, kappa, V domains shown)
VH: QVQLVQSGAEVKKPGSSVKVSCKASGYTFTDNYMIWVRQAPGQGLEWMGDINPYNGGTTFNQKFKGRVTITADKSTSTAYMELSSLRSEDTAVYYCARESPYFSNLYVMDYWGQGTLVTVSS
VL: EIVLTQSPATLSLSPGERATLSCKASQSVDYDGDNYMNWYQQKPGQAPRLLIYAASNLESGIPARFSGSGSGTDFTLTISSLEPEDFAVYYCHLSNEDLSTFGGGTKVEIKR
notes: also called FPA008; HuAb1
For B1, the binding result in test [1] was “binds”; with mouse CSF1R, “no binding”.

B2: Nivolumab (antibody, human IgG4 S228P, kappa, V domains shown)
VH: QVQLVESGGGVVQPGRSLRLDCKASGITFSNSGMHWVRQAPGKGLEWVAVIWYDGSKRYYADSVKGRFTISRDNSKNTLFLQMNSLRAEDTAVYYCATNDDYWGQGTLVTVSS
VL: EIVLTQSPATLSLSPGERATLSCRASQSVSSYLAWYQQKPGQAPRLLIYDASNRATGIPARFSGSGSGTDFTLTISSLEPEDFAVYYCQQSSNWPRTFGQGTKVEIKR
notes: also called Opdivo; 5C4
Consider B2, for which the binding result with ICOS, with CTLA-4 and with BTLA was “no binding” throughout.
